To fix the notation:
B1: High mobility group protein B1 (Rattus norvegicus (Rat)), P63159 (parent)
chain: MGKGDPKKPRGKMSSYAFFVQTCREEHKKKHPDASVNFSEFSKKCSERWKTMSAKEKGKFEDMAKADKARYEREMKTYIPPKGETKKKFKDPNAPKRPPSAFFLFCSEYRPKIKGEHPGLSIGDVAKKLGEMWNNTAADDKQPYEKKAAKLKEKYEKDIAAYRAKGKPDAAKKGVVKAEKSKKKKEEEDDEEDEEDEEEEEEEEDEDEEEDDDDE

This note sets out measurements from IntAct's records for PubMed 20819940.

Variants of B1 are the subject of this test. Particulars: with becn1_mouse Becn1, O88597.
Sequence of becn1_mouse Becn1, O88597 (O88597 whole entry): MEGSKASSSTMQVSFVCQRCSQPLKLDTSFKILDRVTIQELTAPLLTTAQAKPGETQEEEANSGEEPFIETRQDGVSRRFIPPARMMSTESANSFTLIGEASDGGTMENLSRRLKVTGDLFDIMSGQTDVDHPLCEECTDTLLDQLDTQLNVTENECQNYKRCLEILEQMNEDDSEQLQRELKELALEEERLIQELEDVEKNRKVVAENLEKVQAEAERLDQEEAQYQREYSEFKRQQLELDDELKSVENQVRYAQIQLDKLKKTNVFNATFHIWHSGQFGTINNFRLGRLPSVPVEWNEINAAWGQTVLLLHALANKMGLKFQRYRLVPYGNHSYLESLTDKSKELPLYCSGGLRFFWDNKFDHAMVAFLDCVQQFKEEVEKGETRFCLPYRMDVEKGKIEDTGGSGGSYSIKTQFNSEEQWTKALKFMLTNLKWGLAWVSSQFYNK
For MGKGDPKKPRGKMSSYAFFVQTCREEHKKKHPDASVNFSEFSKKSSERWKTMSAKEKGKFEDMAKADKARYEREMKTYIPPKGETKKKFKDPNAPKRPPSAFFLFCSEYRPKIKGEHPGLSIGDVAKKLGEMWNNTAADDKQPYEKKAAKLKEKYEKDIAAYRAKGKPDAAKKGVVKAEKSKKKKEEEDDEEDEEDEEEEEEEEDEDEEEDDDDE [C45S], the “effect of a mutation on the interaction” value is recorded as “disrupting interaction”.

As for MGKGDPKKPRGKMSSYAFFVQTSREEHKKKHPDASVNFSEFSKKCSERWKTMSAKEKGKFEDMAKADKARYEREMKTYIPPKGETKKKFKDPNAPKRPPSAFFLFCSEYRPKIKGEHPGLSIGDVAKKLGEMWNNTAADDKQPYEKKAAKLKEKYEKDIAAYRAKGKPDAAKKGVVKAEKSKKKKEEEDDEEDEEDEEEEEEEEDEDEEEDDDDE [C23S], the “effect of a mutation on the interaction” value is on record as “disrupting interaction”.
